Measured values: paper PMC3633930, “Low Voltage Activation of KCa1.1 Current by Cav3-KCa1.1 Complexes” (PLoS ONE, 2013)

Biological target: Cav3.2 calcium channel α-subunit, full length, human (human, UniProt O95180 1-2353)
Experiment: cell-based or functional assay

Chain of Cav3.2 calcium channel α-subunit, full length, human (O95180 whole entry): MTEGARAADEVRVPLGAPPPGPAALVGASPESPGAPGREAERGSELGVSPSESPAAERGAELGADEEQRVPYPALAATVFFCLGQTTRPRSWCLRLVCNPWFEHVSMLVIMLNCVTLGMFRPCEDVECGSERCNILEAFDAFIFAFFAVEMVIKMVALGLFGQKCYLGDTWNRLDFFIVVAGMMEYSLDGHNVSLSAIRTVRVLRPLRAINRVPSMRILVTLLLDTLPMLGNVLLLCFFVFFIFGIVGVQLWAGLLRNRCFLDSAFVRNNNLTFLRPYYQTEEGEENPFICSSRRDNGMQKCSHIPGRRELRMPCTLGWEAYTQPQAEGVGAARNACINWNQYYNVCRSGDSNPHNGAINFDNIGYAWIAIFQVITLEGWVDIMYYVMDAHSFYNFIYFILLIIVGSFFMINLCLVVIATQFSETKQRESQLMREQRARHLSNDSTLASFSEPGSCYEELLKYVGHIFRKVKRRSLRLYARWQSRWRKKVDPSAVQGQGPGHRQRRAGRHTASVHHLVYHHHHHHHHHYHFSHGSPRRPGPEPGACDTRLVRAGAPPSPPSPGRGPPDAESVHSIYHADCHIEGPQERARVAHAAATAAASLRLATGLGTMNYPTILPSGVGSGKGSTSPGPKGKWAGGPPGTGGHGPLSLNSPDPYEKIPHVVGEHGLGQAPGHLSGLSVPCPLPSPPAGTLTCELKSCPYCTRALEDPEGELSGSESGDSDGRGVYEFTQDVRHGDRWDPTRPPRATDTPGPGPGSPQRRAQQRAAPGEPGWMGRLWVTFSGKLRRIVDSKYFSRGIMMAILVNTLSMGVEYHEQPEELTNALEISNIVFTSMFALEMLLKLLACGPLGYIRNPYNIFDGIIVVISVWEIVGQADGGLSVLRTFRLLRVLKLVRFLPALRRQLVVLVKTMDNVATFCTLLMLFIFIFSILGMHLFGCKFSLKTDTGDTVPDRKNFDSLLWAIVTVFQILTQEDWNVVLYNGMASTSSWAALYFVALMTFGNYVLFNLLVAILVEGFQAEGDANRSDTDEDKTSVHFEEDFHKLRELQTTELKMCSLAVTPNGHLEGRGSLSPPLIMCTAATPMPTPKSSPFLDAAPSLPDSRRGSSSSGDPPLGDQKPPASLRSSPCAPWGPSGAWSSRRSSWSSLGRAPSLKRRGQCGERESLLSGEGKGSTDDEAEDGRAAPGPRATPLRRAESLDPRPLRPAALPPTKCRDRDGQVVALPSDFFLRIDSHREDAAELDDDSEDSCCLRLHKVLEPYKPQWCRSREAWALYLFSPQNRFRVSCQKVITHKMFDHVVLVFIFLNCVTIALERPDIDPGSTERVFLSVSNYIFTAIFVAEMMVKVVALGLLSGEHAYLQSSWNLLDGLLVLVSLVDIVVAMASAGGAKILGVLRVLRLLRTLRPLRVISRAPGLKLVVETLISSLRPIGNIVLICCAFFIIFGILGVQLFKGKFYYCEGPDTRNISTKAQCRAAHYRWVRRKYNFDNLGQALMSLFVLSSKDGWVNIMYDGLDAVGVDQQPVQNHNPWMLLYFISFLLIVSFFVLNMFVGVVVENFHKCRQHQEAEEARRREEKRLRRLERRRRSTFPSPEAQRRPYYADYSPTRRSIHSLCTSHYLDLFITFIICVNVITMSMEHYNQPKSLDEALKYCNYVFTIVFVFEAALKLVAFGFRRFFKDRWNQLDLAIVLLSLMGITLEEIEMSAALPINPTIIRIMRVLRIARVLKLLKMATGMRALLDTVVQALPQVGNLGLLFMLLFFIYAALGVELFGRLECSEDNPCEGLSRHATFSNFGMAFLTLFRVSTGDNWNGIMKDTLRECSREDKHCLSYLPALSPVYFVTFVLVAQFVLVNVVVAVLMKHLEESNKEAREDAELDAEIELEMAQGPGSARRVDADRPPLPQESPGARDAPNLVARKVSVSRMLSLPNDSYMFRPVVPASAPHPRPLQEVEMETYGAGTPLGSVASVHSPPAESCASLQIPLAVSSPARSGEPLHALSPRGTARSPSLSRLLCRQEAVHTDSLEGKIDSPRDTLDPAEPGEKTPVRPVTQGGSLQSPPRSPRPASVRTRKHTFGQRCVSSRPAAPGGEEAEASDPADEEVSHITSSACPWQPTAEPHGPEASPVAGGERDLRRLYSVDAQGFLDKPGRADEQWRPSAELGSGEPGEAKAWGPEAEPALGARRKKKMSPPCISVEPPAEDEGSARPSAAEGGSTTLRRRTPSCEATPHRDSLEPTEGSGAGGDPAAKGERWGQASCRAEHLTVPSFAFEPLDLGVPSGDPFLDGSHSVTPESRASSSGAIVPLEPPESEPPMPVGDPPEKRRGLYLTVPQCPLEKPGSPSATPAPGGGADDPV

B1: KCa1.1 potassium channel α-subunit, full length, myc-tagged, human (natural protein)
chain: not shown
In the case of B1, the “fold increase of the P2/P1 ratio of KCa1.1 current at +40 mV when P2 is preceded by a −30 mV prepulse, whole-cell patch clamp of tsA-201 cells coexpressing Cav3.2 and KCa1.1” value is reported as 2.7 fold.
